The Immune Epitope Database (IEDB)

Tests used:
HLA-A*26:01 [1] = assay: IEDB peptide-MHC binding, purified MHC/direct/fluorescence; filed as Kd, often an IC50 or EC50 that approximates it; ≥ and ≤ were set here for values at or beyond the usual limits of such assays
HLA-B*53:01 = assay: IEDB peptide-MHC binding, purified MHC/competitive/radioactivity; filed as Kd, often an IC50 or EC50 that approximates it; ≥ and ≤ were set here for values at or beyond the usual limits of such assays
HLA-A*23:01 = assay: as above; details: source organism: Dengue virus 4 Philippines/H241/1956
HLA-B*35:01 = assay: as above
HLA-B*51:01 = assay: as above
HLA-A*32:01 = assay: as above; details: source organism: Dengue virus 4 Philippines/H241/1956
HLA-A*26:01 [2] = assay: as above
HLA-B*40:02 = assay: as above
HLA-B*44:02 = assay: as above
HLA-B*40:01 = assay: as above
HLA-B*18:01 = assay: as above
HLA-B*45:01 = assay: as above
HLA-B*44:03 = assay: as above
HLA-B*15:01 [3] = assay: IEDB peptide-MHC binding, purified MHC/competitive/fluorescence; filed as Kd, often an IC50 or EC50 that approximates it; ≥ and ≤ were set here for values at or beyond the usual limits of such assays; details: source organism: Bacillus anthracis str. A0488
HLA-A*03:01 = assay: as above
HLA-A*30:02 = assay: IEDB peptide-MHC binding, purified MHC/competitive/radioactivity; filed as Kd, often an IC50 or EC50 that approximates it; ≥ and ≤ were set here for values at or beyond the usual limits of such assays
HLA-B*15:01 [4] = assay: as above
HLA-A*01:01 = assay: as above
[5] = source organism: Dengue virus 4 Philippines/H241/1956
[6] = source organism: Dengue virus 2 Jamaica/1409/1983
[7] = source organism: Dengue virus 1 Brazil/97-11/1997
[8] = source organism: Mammarenavirus brazilense
[9] = source organism: SARS coronavirus Tor2
[10] = source organism: Lymphocytic choriomeningitis virus (strain WE)
[11] = source organism: Mammarenavirus guanaritoense
[12] = source organism: Lymphocytic choriomeningitis virus (strain Armstrong)
[13] = source organism: Mammarenavirus lassaense
[14] = source organism: Dengue virus 3 Martinique/1243/1999

Sequence LVIDNLYGF has a Kd (HLA-A*26:01 [1]; source organism: Mycobacterium tuberculosis) of 12.2 nM.

MALKDFKEF was tested, and the Kd (HLA-B*53:01; [5]) was 139 nM, the Kd (HLA-A*23:01) was 154 nM and the Kd (HLA-B*35:01; [5]) was 77 nM.

MPLVMAWRTI showed a Kd (HLA-B*51:01; [5]) of 61.9 nM, a Kd (HLA-B*53:01; [5]) of 10.8 nM and a Kd (HLA-A*32:01) of 136 nM. The Kd (HLA-B*35:01; [5]) was 705 nM.

Sequence MPSMKRFRRE has a Kd (HLA-B*51:01; [6]) of no less than 69600 nM, a Kd (HLA-B*53:01; [6]) of no less than 20600 nM and a Kd (HLA-B*35:01; [6]) of no less than 30900 nM.

MSIPATLFVW showed a Kd (HLA-B*53:01; [7]) of 414 nM and a Kd (HLA-A*26:01 [2]; [7]) of 15600 nM.

Work on MVSIQWHAM yielded a Kd (HLA-A*26:01 [1]; source organism: Giardia lamblia ATCC 50803) of 3760 nM.

In the case of PELKKPITW, the Kd (HLA-B*40:02; [8]) is reported as no less than 37100 nM, the Kd (HLA-B*44:02; [8]) is reported as no less than 42800 nM and the Kd (HLA-B*40:01; [8]) is reported as no less than 76100 nM. The Kd (HLA-B*18:01; [8]) was no less than 77500 nM, the Kd (HLA-B*45:01; [8]) was no less than 77700 nM and the Kd (HLA-B*44:03; [8]) was 14100 nM.

Work on QELYSPLFL yielded a Kd (HLA-B*40:02; [9]) of 155 nM, a Kd (HLA-B*44:02; [9]) of 205 nM and a Kd (HLA-B*40:01; [9]) of 102 nM. It also gave a Kd (HLA-B*18:01; [9]) of 5570 nM, a Kd (HLA-B*45:01; [9]) of 2210 nM and a Kd (HLA-B*44:03; [9]) of 222 nM.

QSRKEFMSM gave a Kd (HLA-B*15:01 [3]) of 66.6 nM.

Work on REPTDQKQF yielded a Kd (HLA-B*40:02; [10]) of 6290 nM, a Kd (HLA-B*44:02; [10]) of 1340 nM and a Kd (HLA-B*40:01; [10]) of no less than 20400 nM. For the same sequence, the Kd (HLA-B*18:01; [10]) was no less than 77500 nM, the Kd (HLA-B*45:01; [10]) was no less than 77700 nM and the Kd (HLA-B*44:03; [10]) was 8940 nM.

Work on REVLSDREL yielded a Kd (HLA-B*40:02; [9]) of 102 nM, a Kd (HLA-B*44:02; [9]) of 1220 nM and a Kd (HLA-B*40:01; [9]) of 15.6 nM. It also gave a Kd (HLA-B*18:01; [9]) of 7330 nM, a Kd (HLA-B*45:01; [9]) of 1390 nM and a Kd (HLA-B*44:03; [9]) of 1120 nM.

Sequence REVSTAAVT has a Kd (HLA-B*40:02; [9]) of no less than 21100 nM, a Kd (HLA-B*44:02; [9]) of 16000 nM and a Kd (HLA-B*40:01; [9]) of 112 nM. The Kd (HLA-B*18:01; [9]) was 16900 nM, the Kd (HLA-B*45:01; [9]) was 30.3 nM and the Kd (HLA-B*44:03; [9]) was 6860 nM.

In the case of RLLHRTTRK, the Kd (HLA-A*03:01; source organism: Yersinia pestis Nepal516) is reported as 13.3 nM.

With RLMATKNIY the Kd (HLA-B*15:01 [3]) was 136 nM.

Sequence RVYAHDAQH has a Kd (HLA-A*03:01; source organism: Pixuna virus) of 30.5 nM.

Work on SEDGLDGFDW yielded a Kd (HLA-B*40:02; [11]) of 14400 nM, a Kd (HLA-B*44:02; [11]) of 21.3 nM and a Kd (HLA-B*40:01; [11]) of 14600 nM. It also gave a Kd (HLA-B*18:01; [11]) of no less than 35300 nM, a Kd (HLA-B*45:01; [11]) of no less than 56700 nM and a Kd (HLA-B*44:03; [11]) of 21.2 nM.

For SEIQLQRLC, the Kd (HLA-B*40:02; [8]) was 68.5 nM, the Kd (HLA-B*44:02; [8]) was 285 nM and the Kd (HLA-B*40:01; [8]) was 1770 nM. For the same sequence, the Kd (HLA-B*18:01; [8]) was 10500 nM, the Kd (HLA-B*45:01; [8]) was 990 nM and the Kd (HLA-B*44:03; [8]) was 327 nM.

For SEISVILQEL, the Kd (HLA-B*40:02; [12]) was 544 nM, the Kd (HLA-B*44:02; [12]) was 106 nM and the Kd (HLA-B*40:01; [12]) was 868 nM. It also gave a Kd (HLA-B*18:01; [12]) of 10300 nM, a Kd (HLA-B*45:01; [12]) of 4170 nM and a Kd (HLA-B*44:03; [12]) of 240 nM.

For SELAKGVAL, the Kd (HLA-B*40:02; [9]) was 14.1 nM, the Kd (HLA-B*44:02; [9]) was 132 nM and the Kd (HLA-B*40:01; [9]) was 3.35 nM. For the same sequence, the Kd (HLA-B*18:01; [9]) was 1110 nM, the Kd (HLA-B*45:01; [9]) was 401 nM and the Kd (HLA-B*44:03; [9]) was 175 nM.

Sequence SESDLEFSW has a Kd (HLA-B*40:02; [13]) of 414 nM, a Kd (HLA-B*44:02; [13]) of 9.02 nM and a Kd (HLA-B*40:01; [13]) of 14900 nM. For the same sequence, the Kd (HLA-B*18:01; [13]) was 277 nM, the Kd (HLA-B*45:01; [13]) was 1650 nM and the Kd (HLA-B*44:03; [13]) was 7.4 nM.

For SMANIFRGSY, the Kd (HLA-A*30:02; [6]) was 8.95 nM, the Kd (HLA-B*15:01 [4]; [6]) was 0.27 nM and the Kd (HLA-A*01:01; [6]) was 3250 nM.

SQHNYRPGYF was tested, and the Kd (HLA-B*15:01 [4]; [7]) was 9.37 nM.

SQKTTWLPVL showed a Kd (HLA-B*15:01 [4]; [7]) of 91.5 nM.

TENLVIEGPT was tested, and the Kd (HLA-B*40:02; [9]) was 721 nM, the Kd (HLA-B*44:02; [9]) was 14000 nM and the Kd (HLA-B*40:01; [9]) was no less than 42900 nM. The Kd (HLA-B*18:01; [9]) was no less than 56400 nM, the Kd (HLA-B*45:01; [9]) was 1830 nM and the Kd (HLA-B*44:03; [9]) was no less than 29100 nM.

With TPQPMELKY the Kd (HLA-B*53:01; [14]) was 18.4 nM and the Kd (HLA-B*35:01; [14]) was 10.6 nM.

With VEAVMYMGTL the Kd (HLA-B*40:02; [9]) was 33.8 nM, the Kd (HLA-B*44:02; [9]) was 1540 nM and the Kd (HLA-B*40:01; [9]) was 22.2 nM. The Kd (HLA-B*18:01; [9]) was 7240 nM, the Kd (HLA-B*45:01; [9]) was 508 nM and the Kd (HLA-B*44:03; [9]) was 516 nM.

VLMMLVAPSY gave a Kd (HLA-A*30:02; [5]) of 26.6 nM, a Kd (HLA-B*15:01 [4]; [5]) of 10.1 nM and a Kd (HLA-A*01:01; [5]) of 1000 nM.

For VNIKYNPHI, the Kd (HLA-B*15:01 [4]; source organism: Vaccinia virus WR) was 141 nM.

For YTALFSGVSW, the Kd (HLA-B*44:02; [14]) was 2070 nM, the Kd (HLA-B*53:01; [14]) was 18.2 nM and the Kd (HLA-A*26:01 [2]; [14]) was 916 nM.
